Measured values taken from patent US12358954B2, “Capsid-modified rAAV vector compositions and methods therefor” (priority 2012, dated 2025).

Test system: K562 cells
Experiment: AAV6 transduction of K562 cells after enzyme / inhibitor treatment
Format: cell-based, human
Description: More recently, Denard et al. reported that galectin-3-binding protein in human sera agglutinates AAV6 vectors, which results in decreased transduction efficiency of these vectors. […] The identity of the putative receptor for AAV6 vectors in human CD34^+ cells remains elusive, and additional studies are warranted. […] The implication is that AAV6 uses a protein rather than a lipid on K562 cells for binding and entry into these cells. In addition, because AAV6 is known to have evolved from recombination between AAV1 and AAV2, and because AAV2 uses heparan sulfateproteoglycan (HSPG) as the primary cellular receptor, the level of HSPG expression on K562 cells surface was examined by FACS. […] The effect of inhibitors of O-linked and N-linked glycosylation was also evaluated on the transduction efficiency of AAV6 vectors in K562 cells.

B1: Proteinase K: Proteinase K (Sigma-Aldrich Co.) (protein, UniProt P06873 106-384, looked up)
Proteinase K: AAQTNAPWGLARISSTSPGTSTYYYDESAGQGSCVYVIDTGIEASHPEFEGRAQMVKTYYYSSRDGNGHGTHCAGTVGSRTYGVAKKTQLFGVKVLDDNGSGQYSTIIAGMDFVASDKNNRNCPKGVVASLSLGGGYSSSVNSAAARLQSSGVMVAVAAGNNNADARNYSPASEPSVCTVGASDRYDRRSSFSNYGSVLDIFGPGTSILSTWIGGSTRSISGTSMATPHVAGLAAYLMTLGKTTAASACRYIADTANKGDLSNIPFGTVNLLAYNNYQA
Question: Which “effect on AAV6 vector-mediated transduction of K562 cells” value does the source give for B1 here?
Answer: dramatically decrease
